In general, EC50 (read off the curve) refers to the concentration giving half of the maximal effect. High values mean a less potent agent, low ones a more potent agent. Usually Kd stands for the free concentration of one partner at which half of the binding sites on the other are occupied at equilibrium, for simple one-to-one binding. A word on the EC50: it is the concentration at which the effect is half-maximal. Read a high EC50 as weaker potency. Broadly, the koff is a measure of how fast the partners let go of each other. As usually defined, the kon is a measure of how fast the partners come together.

From patent US20220119534A1 (DRAGONFLY THERAPEUTICS, published 2022) come the findings set out here.

Assay [1] has as its target T1, human CLEC12A expressed on cells (human, UniProt Q5QGZ9 1-265).
T1 construct: Transduced isogenic cells or endogenous expression on AML cells; also called RMA-hCLEC12A; Ba/F3-hCLEC12A
T1 sequence: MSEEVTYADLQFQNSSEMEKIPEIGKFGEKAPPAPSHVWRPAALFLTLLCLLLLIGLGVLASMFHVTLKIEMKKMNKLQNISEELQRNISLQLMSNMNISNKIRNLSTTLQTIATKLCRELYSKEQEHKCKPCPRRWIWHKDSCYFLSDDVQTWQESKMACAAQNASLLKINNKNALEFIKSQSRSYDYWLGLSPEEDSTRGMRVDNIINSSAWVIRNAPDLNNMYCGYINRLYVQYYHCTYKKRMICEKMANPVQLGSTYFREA
Put plainly: flow cytometry on PL-21 cells, fold over background. (In flow cytometry, cells or beads pass a laser one at a time.)
Description: (§1) The cells were then incubated with a fluorophore conjugated anti-human IgG secondary antibody and were analyzed by flow cytometry. The mean fluorescence intensity (MFI) values were normalized to secondary antibody only controls to obtain fold over background (FOB) values.
100,000 cells were seeded per well into a 96-well plate for FACS staining. Cells were washed with PBS. Cells were incubated in a 1:2000 dilution of live/dead dye in PBS for 15 minutes, then washed with FACS buffer. TriNKETs or mAbs were diluted into FACS buffer, and 50 μl containing diluted TriNKET or mAb was added to cells. Cells were incubated on ice for 20 minutes. After the incubation, cells were washed with FACS buffer. Anti-human IgG-Fc secondary antibody was diluted into FACS buffer, and 50 μl was added per well for detection of the bound TriNKETs or mAbs. Cells were incubated for 20 minutes on ice, then washed with FACS buffer. 50 μl of fixation buffer was added to each well, and cells were incubated for 10 minutes at room temperature. […] Within the live gate, the mean fluorescence intensity (MFI) of each sample and the secondary-only control was calculated. Fold-over-background (FOB) was calculated as the ratio of test article MFI over secondary-only background MFI. […]

Assay [2] addresses T2, recombinant human CLEC12A-His (human, UniProt Q5QGZ9 65-265).
T2 construct: also called hCLEC12A-His; hCLEC12A
T2 sequence: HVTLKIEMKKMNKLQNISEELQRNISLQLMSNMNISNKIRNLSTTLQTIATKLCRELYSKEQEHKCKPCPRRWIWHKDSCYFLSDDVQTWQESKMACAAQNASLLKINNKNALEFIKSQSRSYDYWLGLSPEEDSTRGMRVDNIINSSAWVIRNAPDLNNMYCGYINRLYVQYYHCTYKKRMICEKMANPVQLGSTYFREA
The assay is described as follows: SPR, CLEC12A binding.

The target of assay [3] is T1, human CLEC12A expressed on cells. Put plainly: flow cytometry on CLEC12A+ PL-21 AML cells.
Assay [4] concerns the target T3, recombinant cynomolgus CLEC12A-His (cynomolgus monkey, UniProt A0A2K5WXQ4 71-271).
T3 construct: also called cCLEC12A-His; cCLEC12A
T3 sequence: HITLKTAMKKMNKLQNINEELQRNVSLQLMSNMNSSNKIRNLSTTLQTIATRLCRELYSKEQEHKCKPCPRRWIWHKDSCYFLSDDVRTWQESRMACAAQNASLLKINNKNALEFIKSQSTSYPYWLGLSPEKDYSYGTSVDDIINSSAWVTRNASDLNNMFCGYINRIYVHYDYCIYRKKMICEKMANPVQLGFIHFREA
Put plainly: SPR 37C.

The target of another assay is T4, recombinant human CD16b (human, UniProt O75015 17-200, limits assumed, biotinylated).
T4 construct: also called FcγRIIIb
T4 sequence (O75015 17-200 limits assumed): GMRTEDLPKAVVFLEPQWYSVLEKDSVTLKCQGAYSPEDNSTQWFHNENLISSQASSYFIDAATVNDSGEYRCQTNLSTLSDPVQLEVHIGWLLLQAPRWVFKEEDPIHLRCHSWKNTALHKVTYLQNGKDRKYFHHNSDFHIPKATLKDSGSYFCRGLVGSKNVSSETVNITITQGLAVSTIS
Put plainly: SPR. (In general: Surface plasmon resonance follows binding to a sensor surface in real time, without labels.)

For assay [5], the target named is T5, recombinant human CD16a V158 (human, UniProt P08637 17-208, biotinylated).
T5 construct: also called FcγRIIIa V158; hCD16aV
T5 sequence (P08637 17-208 F176V limits assumed): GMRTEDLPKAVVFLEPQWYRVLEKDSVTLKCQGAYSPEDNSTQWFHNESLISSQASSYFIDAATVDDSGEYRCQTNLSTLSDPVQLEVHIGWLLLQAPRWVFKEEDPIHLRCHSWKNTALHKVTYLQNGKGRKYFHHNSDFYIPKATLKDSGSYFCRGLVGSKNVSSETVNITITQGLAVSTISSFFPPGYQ
The assay is described as follows: SPR.

The target in assay [6] is T1, human CLEC12A expressed on cells. The assay is described as follows: flow cytometry (MFI) on CLEC12A+ PL21 AML cells, about 0.04 to 27 nM, plateau about 1150 MFI; the molecule is assigned by panel order and legend paragraph 296.
Assay [7] shares this target. The assay is described as follows: flow cytometry on HL-60 cells, fold over background.
Description: as §1
100,000 cells were seeded per well into a 96-well plate for FACS staining. Cells were washed with PBS. Cells were incubated in a 1:2000 dilution of live/dead dye in PBS for 15 minutes, then washed with FACS buffer. TriNKETs or mAbs were diluted into FACS buffer, and 50 μl containing diluted TriNKET or mAb was added to cells. Cells were incubated on ice for 20 minutes. After the incubation, cells were washed with FACS buffer. Anti-human IgG-Fc secondary antibody was diluted into FACS buffer, and 50 μl was added per well for detection of the bound TriNKETs or mAbs. Cells were incubated for 20 minutes on ice, then washed with FACS buffer. 50 μl of fixation buffer was added to each well, and cells were incubated for 10 minutes at room temperature. Cells were washed with FACS buffer and resuspended in FACS buffer for analysis with BD FACS Celesta SN #H66034400085, or BD FACS Celesta SN #H66034400160. Cells of interest were identified using FSC vs. SSC plot, and an appropriately shaped gate was drawn around the cells. Within the gated cells, doublet cells were removed by viewing FSC-H vs FSC-A plot. Within the single cell population, live cells were gated. Within the live gate, the mean fluorescence intensity (MFI) of each sample and the secondary-only control was calculated. Fold-over-background (FOB) was calculated as the ratio of test article MFI over secondary-only background MFI. Data were fit to a four-parameter non-linear regression curve using GraphPad Prism 7.0.
The target of the next assay is T6, human CLEC12A-K244Q-His (human, UniProt Q5QGZ9 65-265).
T6 construct: Polymorphic variant; also called hCLEC12A-K244Q; CLEC12A (Q244)
T6 chain: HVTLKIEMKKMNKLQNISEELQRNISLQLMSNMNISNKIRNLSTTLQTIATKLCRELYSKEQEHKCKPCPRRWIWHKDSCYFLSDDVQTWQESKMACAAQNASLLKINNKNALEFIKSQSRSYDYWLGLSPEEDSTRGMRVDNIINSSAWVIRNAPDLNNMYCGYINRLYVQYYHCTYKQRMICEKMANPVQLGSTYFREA
The assay is described as follows: SPR.

The target of assay [8] is T1, human CLEC12A expressed on cells. The assay is described as follows: flow cytometry, HL60.
The target in assay [9] is T2, recombinant human CLEC12A-His. Put plainly: SPR.
For assay [10] the target is unchanged. The assay is described as follows: SPR; sensorgrams of a CLEC12A concentration series with fit overlays (response up to about 28, time axis 0 to about 900).
The target is the same in assay [11]. The assay is described as follows: SPR screening, semi-purified.
Assay [12] has as its target T1, human CLEC12A expressed on cells. Put plainly: flow cytometry, hCLEC12A+ Ba/F3.

B1: AB0089 TriNKET (other)
chain: QLQLQESGPGLVKPSETLSLTCTVSGFSLTNYGLHWIRQPPGKCLEWIGVIWVGGATDYNPSLKSRVTISVDTSKNQFSLKLSSVQAADTAVYYCAKGDYGDTLDYWGQGTLVTVSSGGGGSGGGGSGGGGSGGGGSDIQMTQSPSSLSASVGDRVTITCHASQNINFWLSWYQQKPGKAPKLLIYEASNLHTGVPSRFSGSGSGTDFTLTISSLQPEDFATYYCQQSHSYPLTFGCGTKLEIKGSDKTHTCPPCPAPELLGGPSVFLFPPKPKDTLMISRTPEVTCVVVDVSHEDPEVKFNWYVDGVEVHNAKTKPREEQYNSTYRVVSVLTVLHQDWLNGKEYKCKVSNKALPAPIEKTISKAKGQPREPRVYTLPPCRDELTKNQVSLTCLVKGFYPSDIAVEWESNGQPENNYKTTPPVLVSDGSFTLYSKLTVDKSRWQQGNVFSCSVMHEALHNHYTQKSLSLSPG
heavy: EVQLVESGGGLVKPGGSLRLSCAASGFTFSSYSMNWVRQAPGKGLEWVSSISSSSSYIYYADSVKGRFTISRDNAKNSLYLQMNSLRAEDTAVYYCARGAPIGAAAGWFDPWGQGTLVTVSSASTKGPSVFPLAPSSKSTSGGTAALGCLVKDYFPEPVTVSWNSGALTSGVHTFPAVLQSSGLYSLSSVVTVPSSSLGTQTYICNVNHKPSNTKVDKKVEPKSCDKTHTCPPCPAPELLGGPSVFLFPPKPKDTLMISRTPEVTCVVVDVSHEDPEVKFNWYVDGVEVHNAKTKPREEQYNSTYRVVSVLTVLHQDWLNGKEYKCKVSNKALPAPIEKTISKAKGQPREPQVCTLPPSRDELTENQVSLTCLVKGFYPSDIAVEWESNGQPENNYKTTPPVLDSDGSFFLYSWLTVDKSRWQQGNVFSCSVMHEALHNHYTQKSLSLSPG
light: DIQMTQSPSSVSASVGDRVTITCRASQGISSWLAWYQQKPGKAPKLLIYAASSLQSGVPSRFSGSGSGTDFTLTISSLQPEDFATYYCQQGVSFPRTFGGGTKVEIKRTVAAPSVFIFPPSDEQLKSGTASVVCLLNNFYPREAKVQWKVDNALQSGNSQESVTEQDSKDSTYSLSSTLTLSKADYEKHKVYACEVTHQGLSSPVTKSFNRGEC
B1: the “EC50 (read off the curve)” value in [1] was about 0.5 nM. For the same molecule, in [2], the Kd came out at 0.8 nM. The same molecule showed an EC50 in assay [3] of 0.45 nM. Moreover, the binding result in assay [4] is given as “no binding (tested: 100 nM)”. Besides, the entries for the “fold difference in affinity vs trastuzumab” value (with recombinant human CD16b; in assay [5]) were 2.3 fold and 3.8 fold, respectively.

B2: AB0192 TriNKET (other)
chain: EVQLVESGGGVVQPGGSLRLSCAASGFTFNAFGMHWVRQAPGKCLEWVAFISSGSTSIYYANTVKGRFTISRDNSKNTLYLQMNSLRAEDTAVYYCARDGYPTGGAMDYWGQGTSVTVSSGGGGSGGGGSGGGGSGGGGSDIQMTQSPSSLSASVGDRVTITCKASQDIYNYLSWFQQKPGKAPKPLIYRANILVSGVPSRFSGSGSGQDYTFTISSLQPEDIATYYCLQFDAFPFTFGCGTKLEIKGSDKTHTCPPCPAPELLGGPSVFLFPPKPKDTLMISRTPEVTCVVVDVSHEDPEVKFNWYVDGVEVHNAKTKPREEQYNSTYRVVSVLTVLHQDWLNGKEYKCKVSNKALPAPIEKTISKAKGQPREPRVYTLPPCRDELTKNQVSLTCLVKGFYPSDIAVEWESNGQPENNYKTTPPVLVSDGSFTLYSKLTVDKSRWQQGNVFSCSVMHEALHNHYTQKSLSLSPG
heavy: EVQLVESGGGLVKPGGSLRLSCAASGFTFSSYSMNWVRQAPGKGLEWVSSISSSSSYIYYADSVKGRFTISRDNAKNSLYLQMNSLRAEDTAVYYCARGAPIGAAAGWFDPWGQGTLVTVSSASTKGPSVFPLAPSSKSTSGGTAALGCLVKDYFPEPVTVSWNSGALTSGVHTFPAVLQSSGLYSLSSVVTVPSSSLGTQTYICNVNHKPSNTKVDKKVEPKSCDKTHTCPPCPAPELLGGPSVFLFPPKPKDTLMISRTPEVTCVVVDVSHEDPEVKFNWYVDGVEVHNAKTKPREEQYNSTYRVVSVLTVLHQDWLNGKEYKCKVSNKALPAPIEKTISKAKGQPREPQVCTLPPSRDELTENQVSLTCLVKGFYPSDIAVEWESNGQPENNYKTTPPVLDSDGSFFLYSWLTVDKSRWQQGNVFSCSVMHEALHNHYTQKSLSLSPG
light: DIQMTQSPSSVSASVGDRVTITCRASQGISSWLAWYQQKPGKAPKLLIYAASSLQSGVPSRFSGSGSGTDFTLTISSLQPEDFATYYCQQGVSFPRTFGGGTKVEIKRTVAAPSVFIFPPSDEQLKSGTASVVCLLNNFYPREAKVQWKVDNALQSGNSQESVTEQDSKDSTYSLSSTLTLSKADYEKHKVYACEVTHQGLSSPVTKSFNRGEC
notes: Humanized 9F11.B7 scFv-Fc, A49MI Fab-Fc
Take B2: the EC50 in assay [6] was found to be 0.27 nM; in assay [8], 0.6 nM; in assay [12], 0.7 nM. The “EC50 (read off the curve)” value in assay [7] was about 1 nM. Moreover, the binding result in assay [4] was “no binding (tested: 100 nM)”. The “fold difference in affinity vs CLEC12A WT” value with human CLEC12A-K244Q-His is at most 2.5 fold. Also, in assay [5], the “fold difference in affinity vs trastuzumab” value was about 2 fold. Besides, the “Max binding MFI” value in assay [8] came out at 503 MFI; in assay [12], 10200 MFI. In addition, the values for the Kd in assay [9], in assay [10] and in assay [11] were 1.2 nM, 1.66 nM and 1.26 nM, respectively. In [11], the koff came to 0.00138 s⁻¹. Besides, the kon in assay [11] came to 1.09e+06 M⁻¹ s⁻¹.
